Source: FireProtDB (doi:10.1021/bi201253b)

B1: D119K, A5H7H0 (parent)
chain: MQLQNFLSIVLLVVSGAIAGTVMDHDKIAKLPASGSPLETKFQPQLHIGNGCHSYPAVDAQGNWSGGLKPTGAPSAACKDTSKAQTYVRSATFQGKTALVYAWYMPKDEISTGIGHRHDWEGAVVFLNSDTQQIDGVAASAHGKWRKYPNPGGANIDDTHVKLQYSAEPVINSHALDLTDKGGDLPTLASWEGMGADARAAINERSHWGDANPPIADSLIGSSLSGAWMW

Variants of: B1
Details: Moniliophthora perniciosa; pH 7.2; Thermal; CD; sodium phosphate buffer 4mM; EDTA CaCl2 with ZnCl2 62.5 micro M 120 micro M 120 micro M; structure 3ST1; whole UniProt chain shown

Row | Variant | Tm [°C] | change of melting temperature, mutant - wild type (higher = more stable) [°C]
1 | D119K | 40.2 | 0.25
2 | H116A | 40.4 | 0.4
3 | H116S | 39.9 | -0.07
4 | D210S | 38.7 | -1.25
5 | V170R | 37.7 | -2.26
